Data as given in patent US20110038869A1 (Genmab, published 2011).
Positions count from the first letter of the chain named.

Experiments:
[1] = target: T1, full length CD32b2 on transfected IIA1.6 cells (human, UniProt P31994-2 43-291); assay: flow cytometry on IIA1.6-CD32b2 cells
T1 construct: whole, on cells; also called IIA1.6-CD32b2
T1 sequence (looked up): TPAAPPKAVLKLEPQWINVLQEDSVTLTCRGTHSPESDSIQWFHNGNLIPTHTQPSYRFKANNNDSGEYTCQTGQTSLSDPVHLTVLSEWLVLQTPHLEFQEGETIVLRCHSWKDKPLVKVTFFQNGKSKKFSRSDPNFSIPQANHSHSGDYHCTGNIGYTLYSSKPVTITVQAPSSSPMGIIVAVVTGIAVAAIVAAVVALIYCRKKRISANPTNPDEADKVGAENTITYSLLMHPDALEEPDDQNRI
Method: (§1) After harvesting and counting, IIA1.6 cells stably transfected with full length CD32a and CD32b (van den Herik-Oudijk et al., 1994), control IIA1.6 cells and Daudi-luc cells were resuspended in PBS (1×10⁶ cells/ml). Cells were put in 96-well V-bottom plates (100 μl/well) and washed twice with FACS buffer (PBS supplemented with 0.1% BSA and 0.02% Na-azide). Thereafter, 50 μl of serially diluted HuMab in FACS buffer was added to the cells and incubated for 30 minutes at 4° C. After washing three times with FACS buffer, 50 μl of phycoerythrin (PE)-conjugated rabbit anti-human IgG (Jackson ImmunoResearch Europe), diluted 1:200 in FACS buffer, was added. After 30 minutes at 4° C. (in the dark), cells were washed three times, and specific binding of the HuMabs was detected by flow cytometry on a FACSCalibur (BD Biosciences). […] Binding curves were analyzed using non-linear regression (sigmoidal dose-response with variable slope) using GraphPad Prism V4.03 software (GraphPad Software, San Diego, Calif., USA).
To analyze binding of anti-CD32b HuMabs to CD32b1 and CD32b2, IIA1.6 cells transfected with full length CD32b1 or CD32b2 (van den Herik-Oudijk et al., 1994) were prepared as described supra. The assay was performed as described supra. Flow cytometry was performed on a FACS Canto II (BD Biosciences).

CD32bECDHis [2] = target: T2, CD32bECDHis (human, UniProt P31994 43-223, limits assumed); assay: ELISA on coated CD32bECDHis
T2 construct: Produced in HEK-293F cells; also called extracellular domain of CD32b with C-terminal His tag; soluble CD32b
T2 sequence (looked up): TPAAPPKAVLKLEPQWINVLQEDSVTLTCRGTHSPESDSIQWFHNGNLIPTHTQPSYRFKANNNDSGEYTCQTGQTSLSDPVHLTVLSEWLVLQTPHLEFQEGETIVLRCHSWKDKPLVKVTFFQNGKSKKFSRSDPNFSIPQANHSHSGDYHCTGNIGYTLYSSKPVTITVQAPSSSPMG
Method: The specificity of the obtained anti-CD32b HuMabs was evaluated by ELISA. ELISA plates (Microlon; Greiner Bio-One) were coated overnight at 4° C. with 2 μg/ml of CD32aECDHis and CD32bECDHis in PBS, pH 7.4. Coated ELISA plates were washed with PBS, blocked for one hour at room temperature with 2% (v/v) chicken serum (Gibco, Paisley, Scotland) in PBS and washed again with PBS. Subsequently, HuMabs, serially diluted in PBSTC (PBS supplemented with 2% (v/v) chicken serum and 0.05% (v/v) Tween-20), were incubated for 1 hr at RT under shaking conditions (300 rpm). Bound HuMabs were detected using HRP-conjugated goat-anti-human IgG antibodies (Jackson ImmunoResearch Europe) diluted 1:10,000 in PBSTC, which were incubated for 1 hr at RT under shaking conditions (300 rpm). […] Binding curves were analyzed using non-linear regression (sigmoidal dose-response with variable slope) using GraphPad Prism V4.03 software.

CD32bECDHis [3] = target: T2, CD32bECDHis; assay: SPR BIAcore 3000, antibody immobilized, CD32bECDHis analyte
Method: Antibody binding to CD32a and CD32b was analyzed by surface plasmon resonance in a BIAcore 3000 (GE Healthcare). CD32aECDHis and CD32bECDHis derived from HEK293 cells were used for the analysis. HuMab antibodies were immobilized on the CM-5 sensor chip according to the procedure recommended by the manufacturer. Briefly, after surface activation by EDC and NHS HuMab antibody was injected over the activated CM-5 surface in 10 mM sodium-acetate, pH ranging from 4.0 to 5.5 at 5 μl/min. followed by 1 M Ethanolamine for deactivation. Concentration series of CD32bECDHis in HBS-EP buffer were injected over the immobilized antibodies at a flow rate of 30 μl/min for 180 sec. Regeneration of the HuMab surface was performed by injection of 10 mM Glycine-HCl pH 2.0 or 10 mM sodium acetate pH 3.0. […] Kinetic analysis is performed using double reference subtraction and model 1:1 (langmuir) binding analysis. Specificity was studied by injecting CD32aECDHis at a concentration of […] over immobilized HuMab and isotype control antibodies under the same conditions as for the CD32b measurements.

CD32bECDHis [4] = target: T2, CD32bECDHis; assay: TR-FRET competition against HuMab-KLH-AlexaFluor 647
Source text: To study the interaction of anti-CD32b HuMabs with CD32b and CD32a in more detail TR-FRET technology was applied. To this end, CD32bECDHis and CD32aECDHis were labeled with a fluorescent donor molecule directed against the histidine tag (Anti-6×His Europium3+, PerkinElmer, Boston Mass.).
Briefly, all dilutions were made in 0.5× Lance detection buffer (PerkinElmer, Boston Mass.) supplemented with 0.2% BSA (obtained via dilution of 7.5% BSA Stabilizer solution, cat: CR84-100, PerkinElmer) and 0.03% (v/v) Tween-20 (Riedel de Haen, Seelze, Germany). CD32bECDHis and CD32aECDHis were diluted to 0.5 μg/ml. […] Anti-6×His Europium3+ (PerkinElmer, Boston Mass.) was diluted to 0.15 μg/ml. A 4-fold serial dilution of the tested HuMab antibody was made in a 96 wells non-binding plate (cat. 650261, Greiner Bio-one, Frickenhausen, Germany), ranging from 10 μg/ml-0.04 ng/ml. […] After overnight incubation at 4° C. in the dark, fluorescence was measured using an EnVision 2101 Multilabel reader (PerkinElmer, Boston, Mass.) applying the following settings; Lance/Delfia dual mirror, emission filter 615-665 nm, excitation filter 320 nm, delay time 60 μs, window 100 μs, 100 flashes, 2000 μs per cycle and bidirectional row-by-row reading. Binding curves were analyzed using non-linear regression (sigmoidal dose-response with variable slope) using GraphPad Prism V4.03 software (GraphPad Software, San Diego, Calif., USA).

[5] = target: T3, full length CD32a on stably transfected IIA1.6 cells (human, UniProt P12318 34-317); assay: flow cytometry on IIA1.6-CD32a cells
T3 construct: whole, on cells; also called IIA1.6-CD32a; CD32a-expressing IIA1.6 cells
T3 sequence (looked up): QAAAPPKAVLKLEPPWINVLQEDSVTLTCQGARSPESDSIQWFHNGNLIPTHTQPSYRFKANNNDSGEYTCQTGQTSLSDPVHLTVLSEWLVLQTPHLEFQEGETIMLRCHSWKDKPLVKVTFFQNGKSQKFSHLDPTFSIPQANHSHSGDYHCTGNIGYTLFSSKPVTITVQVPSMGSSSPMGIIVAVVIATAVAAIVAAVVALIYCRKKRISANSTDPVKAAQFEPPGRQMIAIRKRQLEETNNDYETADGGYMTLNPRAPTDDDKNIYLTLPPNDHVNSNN
Method: as §1

biotinylated CD32bECDHis [6] = target: T4, biotinylated CD32bECDHis (human, UniProt P31994 43-223, limits assumed, biotinylated (sites not given)); assay: competition ELISA, competitor 038
T4 sequence (looked up): T2 sequence (looked up)
Method: (§2) ELISA wells were coated overnight at 4° C. with anti-CD32b HuMabs serially diluted in PBS. The ELISA wells were washed with PBS, blocked for one hour at room temperature with 2% (v/v) chicken serum (Gibco, Paisley, Scotland) in PBS and washed again with PBS. Subsequently, the immobilized antibodies were incubated with biotinylated CD32bECDHis serially diluted in PBSTC. After washing with PBS/Tween, bound biotinylated CD32bECDHis was incubated with Streptavidin-poly-HRP (Sanquin, Amsterdam, The Netherlands) for 1 hr at RT an the reaction was developed as described supra.
(§3) To this end, ELISA wells coated with anti-CD32b HuMabs were incubated in the presence of an excess of CD32b-specific antibody and the predetermined concentration of biotinylated CD32bECDHis in fluid phase. The reaction was developed as described.

biotinylated CD32bECDHis [7] = target: T4, biotinylated CD32bECDHis; assay: competition ELISA, competitor 022
Method: as §2, §3

biotinylated CD32bECDHis [8] = target: T4, biotinylated CD32bECDHis; assay: competition ELISA, competitor 063
Method: as §2, §3

biotinylated CD32bECDHis [9] = target: T4, biotinylated CD32bECDHis; assay: competition ELISA, competitor 024
Method: as §2, §3

biotinylated CD32bECDHis [10] = target: T4, biotinylated CD32bECDHis; assay: competition ELISA, competitor 026
Method: as §2, §3

biotinylated CD32bECDHis [11] = target: T4, biotinylated CD32bECDHis; assay: competition ELISA, competitor 016
Method: as §2, §3

biotinylated CD32bECDHis [12] = target: T4, biotinylated CD32bECDHis; assay: competition ELISA, competitor 028
Method: as §2, §3

biotinylated CD32bECDHis [13] = target: T4, biotinylated CD32bECDHis; assay: competition ELISA, competitor 053
Method: as §2, §3

biotinylated CD32bECDHis [14] = target: T4, biotinylated CD32bECDHis; assay: competition ELISA, competitor 034
Method: as §2, §3

biotinylated CD32bECDHis [15] = target: T4, biotinylated CD32bECDHis; assay: competition ELISA, competitor 020
Method: as §2, §3

biotinylated CD32bECDHis [16] = target: T4, biotinylated CD32bECDHis; assay: competition ELISA, competitor 2B6
Method: as §2, §3

B1: Antibody 016 (antibody, human IgG1, V domains shown)
VH: QVQLVESGGGVVQPGRSLRLSCAASGFTFSSYGIHWVRQAPGKGLEWVAVIGYDGSDKNYADSVKGRFTIFRDNSKNTLYLQMNSLRAEDTAVYYCARDQLGDAFDIWGQGTMVTVSS
VL: EIVLTQSPATLSLSPGERATLSCKASQSVSSSLAWYQQKPGQAPRLLIYDASNRATGIPARFSGSGSGTDFTLTISSLEPEDFAVYYCQQRSNWPPYTFGQGTKLEIKR
notes: Human antibody; also called HuMab 016
EC50 [1]: 0.11 nM | EC50 (CD32bECDHis [2]): 0.28 nM | Kd (CD32bECDHis [3]): 1.1 nM | koff (CD32bECDHis [3]): 0.0028 s⁻¹ | kon (CD32bECDHis [3]): 2.66e+06 M⁻¹ s⁻¹ | IC50 (CD32bECDHis [4]): 0.24 nM | EC50 [5]: 0.25 nM

B2: Antibody 063 (antibody, human IgG1, V domains shown)
VH: EVQLLESGGGLVQPGGSLRLSCAASGFTFSSYAMSWVRQAPGKGLEWVSAISDSGGSTYYADSVKGRFTISRDNSKNTLYLQMNSLRAEDTAAYYCAKEIAVALFDYWGQGTLVTVSS
VL: B1 VL with K24R, S32Y, N93S
notes: Human antibody; also called HuMab 063
% residual binding (biotinylated CD32bECDHis [6]): 102% | % residual binding (biotinylated CD32bECDHis [7]): 29% | % residual binding (biotinylated CD32bECDHis [8]): 0% | % residual binding (biotinylated CD32bECDHis [9]): 23% | % residual binding (biotinylated CD32bECDHis [10]): 70% | % residual binding (biotinylated CD32bECDHis [11]): 103% | % of maximal Fab-mediated inhibition (CD32bECDHis [4]): ~70% | % residual binding (biotinylated CD32bECDHis [12]): 49% | % residual binding (biotinylated CD32bECDHis [13]): 79% | % residual binding (biotinylated CD32bECDHis [14]): 8% | % residual binding (biotinylated CD32bECDHis [15]): 59% | % residual binding (biotinylated CD32bECDHis [16]): 98%

B3: Antibody 053 (antibody, human IgG1, V domains shown)
VH: QVQLVESGGGVVQPGRSLRLSCAVSGFTFRSYGMHWVRQAPGKGLEWVAVIWYDGSIKYYADSVKGRFTISRDNSKNTLYLQMNSLRAEDTAVYFCAREGGRDAFDIWGQGTMVTVSS
VL: AVQLTQSPSSLSASVGDRVTITCRASQGISSALAWYQQKPGKAPKLLIYDASSLESGVPSRFSGSGSGTDFTLTISSLQPEDFATYCCQQFNSYPHTFGGGTKVEIKR
notes: Human antibody; also called HuMab 053
% residual binding (biotinylated CD32bECDHis [6]): 168% | % residual binding (biotinylated CD32bECDHis [7]): 8% | % residual binding (biotinylated CD32bECDHis [8]): 43% | EC50 [1]: 1.06 nM | % residual binding (biotinylated CD32bECDHis [9]): 6% | % residual binding (biotinylated CD32bECDHis [10]): 26% | % residual binding (biotinylated CD32bECDHis [11]): 98% | % residual binding (biotinylated CD32bECDHis [12]): 13% | % residual binding (biotinylated CD32bECDHis [13]): 40% | % residual binding (biotinylated CD32bECDHis [14]): 4% | % residual binding (biotinylated CD32bECDHis [15]): 19% | % residual binding (biotinylated CD32bECDHis [16]): 195%
